Consider three molecules from PMC9055099, “Transcription factor CsWRKY40 regulates L-theanine hydrolysis by activating the CsPDX2.1 promoter in tea leaves during withering”.

Data set [1] concerns the target T1, CsWRKY40 (Camellia sinensis, UniProt A0A4S4ET85 1-292). Nature of the data set: EMSA; LightShift Chemiluminescent EMSA kit (ThermoFisher) per instructions; buffer, salt, pH and temperature not stated. The following applies: protein: recombinant; tags: GST (pGEX-4T-1); label: 3' biotin on both strands; blunt. Background: In EMSA bound probe runs differently from free probe, usually more slowly.

In data set [2] the target is T1, CsWRKY40. Nature of the data set: competition; unlabelled competitor against biotin probe N1; shift gradually reduced with increasing cold probe; LightShift Chemiluminescent EMSA kit (ThermoFisher) per instructions; buffer, salt, pH and temperature not stated. The conditions noted are these: protein: recombinant; tags: GST (pGEX-4T-1); blunt.

T1 sequence (A0A4S4ET85 entry or part of it): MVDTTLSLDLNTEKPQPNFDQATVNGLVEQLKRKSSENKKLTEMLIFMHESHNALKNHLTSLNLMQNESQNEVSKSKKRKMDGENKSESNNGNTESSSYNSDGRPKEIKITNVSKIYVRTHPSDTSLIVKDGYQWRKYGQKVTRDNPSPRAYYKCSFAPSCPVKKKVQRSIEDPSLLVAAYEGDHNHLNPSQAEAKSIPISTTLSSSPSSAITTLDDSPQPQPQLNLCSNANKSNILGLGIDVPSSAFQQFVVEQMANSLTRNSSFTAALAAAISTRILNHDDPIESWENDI

B1: CsPDX2.1 promoter W box 2 biotin probe (dsDNA)
DNA 1: TTTATTTAAGAATTGACCGTAGATAACTTT
DNA 2: AAAGTTATCTACGGTCAATTCTTAAATAAA
Turning to B1, the binding result with CsWRKY40 [1] is on record as “binds”.

B2: cold probe (W box 2) (dsDNA)
DNA 1: B1 DNA 1
DNA 2: B1 DNA 2
As to B2, the binding result in the data set with CsWRKY40 [2] is “binds”.

B3: mutant probe (TTGACC to AAAAAA) (dsDNA)
DNA 1: TTTATTTAAGAAAAAAAAGTAGATAACTTT
DNA 2: AAAGTTATCTACTTTTTTTTCTTAAATAAA
As to B3, the binding result with CsWRKY40 [1] is on record as “no binding”.
